To fix the notation:
B1: PRT-464 (protein)
chain: MVTSVWTKGVTPPANFTQGEDVFHAPYVANQGWYDITKAFDGGDDLLCGAATAGNMLHWWFDQNKDQIERYLKEHPEKQKINFNGEQMFDVKEAIDTKDSQTNSELFNYFKEKAFPYLSTKHLGVFPDHVLDMFINGYRLSLTNHGPTPVKEGSKDPRGGIFDAVFTRGDQSKLLTSRHDLKNKTLKEISDLIKQELTEGKALGLSHTYANVRINHVINLWGADFDSEGNLKAIYVTDSDSNASIGMKKYFVGVNSAGKVAISAKEIKEDNIGAQVLGLFTLSTGQDIWNQTNLEHHHHHH
B2: PRT-514 (protein)
chain: MITSVWTKGVTPPTDFIKGEDVFHAPYKAGQGWYDITKAFDGGDDLLCGAATAGNMLHWWFDQNKEEIEAYLKKHPEKQKIMFGDQELLDVRKVINTKDSQTNSALFNYFKDKAFPNLSARRLGVMPDLVLDMFINGYYLNVYKTQTTDVNRQEQTKDRRGGIFDAVFGRGDQTKLLTERHDFKEKTLNEISQLIKQELTEGKALGLSHTYANVRINHVINLWGADFDAEGNLEAIYVTDSDSNASIGMKKYFVGVNSAGKVAISAKEIKEDNIGAQVLGLFTLSTGQKIWNKTNLEHHHHHH
B3: PRT-487 (protein)
chain: MVTSVWTKGVTPPTDFIKGEDVFHAPYKAGQGWYDITKTFNGKDNLLCGAATAGNMLHWWFDQNKDQIERYLKEHPEKQKIIFNNQELFDLKAAIDTKDSQTDSKLFEYFKEKAFPYLSTKHLGVFPDHVLDMFINGYRLSLTNHGPTPVKEGSKDKRGGIFDAVFTRGVQSKLLTSRHDLKNKTLKEISDLIKQELTEGKALGLSHTYANVRINHVINLWGADFDSEGNLKAIYVTDSDTNASIGMKKYFVGVNSAGKVAISAKEIKEDNIGAQVLGLFTLSTGQDIWNQTNLEHHHHHH
B4: PRT-523 (protein)
chain: MITSVWTKGVTPPTDFIKGEDVFHAPYKAGQGWYDITKTFNGKDNLLCGAATAGNMLHWWFDQNKEEIEAYLKKHPEKQKIIFNNQELFDLKAVINTKDSQTNSALFNYFKDKAFPNLSARRLGVFPDLVLDMFINGYYLNVYKTQTTDVNRTYQTKDRRGGIFDAVFTRGVQSKLLTERHDLKNKTLKEISDLIKQELTEGKALGLSHTYANVRINHVINLWGADFDSNGNLEAIYVTDSDTNASIGMKKYFVGVNSAGKVAISAKEIKEDNIGAQVLGLFTLSTGQDIWNQTNLEHHHHHH
B5: PRT-493 (protein)
chain: MVTSVWTKGVTPPTNFTYGEDVLHAPYVANQGWYDITKTFNGKDNLLCGAATAGNMLHWWFDQNKEQIENYLKKHPEKQKIIFNNQELFDLKAAIDTKDSQLDSKLFEYFKEKAFPYLSTKHLGVFPDHVIDMFINGYRLSLTNHGPTPVKRGSKDKRGGIFDAVFTRGVQSKLLTNRHDLKNKTLKEISDLIKQELTEGKALGISHTYANVRINHVINLWGADFDAEGNLEAIYVTDSDTNASIGMKKYFVGVNSNGKVAISAKEIEEDNIGAQVLGLFTLSTGQDIWNQTNLEHHHHHH

Here are results for five proteins from patent publication US20250027068.

The target in this data set is pooled human IgG (human IgG1, 2, 3 and 4).
B1: the Enzyme Activity Endpoint Assay: Fab′2 turned out to be 0 ng/µL, the Enzyme Activity Endpoint Assay: Fc worked out at 58 ng/µL, the Enzyme Activity Endpoint Assay: IgG turned out to be 0 ng/µL and the Enzyme Activity Endpoint Assay: scIgG was determined as 0 ng/µL.

For the protein B2, the Enzyme Activity Endpoint Assay: Fab′2 was found to be 64 ng/µL, the Enzyme Activity Endpoint Assay: Fc turned out to be 37 ng/µL, the Enzyme Activity Endpoint Assay: IgG came to 0 ng/µL and the Enzyme Activity Endpoint Assay: scIgG was determined as 0 ng/µL.

B3: the Enzyme Activity Endpoint Assay: Fab′2 amounted to 0 ng/µL, the Enzyme Activity Endpoint Assay: Fc was found to be 22 ng/µL, the Enzyme Activity Endpoint Assay: IgG was 0 ng/µL and the Enzyme Activity Endpoint Assay: scIgG stood at 0 ng/µL.

Take B4: the Enzyme Activity Endpoint Assay: Fab′2 stood at 17 ng/µL, the Enzyme Activity Endpoint Assay: Fc was 24 ng/µL, the Enzyme Activity Endpoint Assay: IgG turned out to be 0 ng/µL and the Enzyme Activity Endpoint Assay: scIgG was 0 ng/µL.

B5 registered an Enzyme Activity Endpoint Assay: Fab′2 of 1170 ng/µL, an Enzyme Activity Endpoint Assay: Fc of 412 ng/µL, an Enzyme Activity Endpoint Assay: IgG of 0 ng/µL and an Enzyme Activity Endpoint Assay: scIgG of 0 ng/µL.
